Where no end group is shown, it is not given here.
Target: αvβ3 integrin on HeLa cells (human, UniProt P06756 31-1048; P05106 27-788)
Assay: cell-based or functional assay

Sequence of αvβ3 integrin on HeLa cells (P06756 31-1048, chain 1 of 2): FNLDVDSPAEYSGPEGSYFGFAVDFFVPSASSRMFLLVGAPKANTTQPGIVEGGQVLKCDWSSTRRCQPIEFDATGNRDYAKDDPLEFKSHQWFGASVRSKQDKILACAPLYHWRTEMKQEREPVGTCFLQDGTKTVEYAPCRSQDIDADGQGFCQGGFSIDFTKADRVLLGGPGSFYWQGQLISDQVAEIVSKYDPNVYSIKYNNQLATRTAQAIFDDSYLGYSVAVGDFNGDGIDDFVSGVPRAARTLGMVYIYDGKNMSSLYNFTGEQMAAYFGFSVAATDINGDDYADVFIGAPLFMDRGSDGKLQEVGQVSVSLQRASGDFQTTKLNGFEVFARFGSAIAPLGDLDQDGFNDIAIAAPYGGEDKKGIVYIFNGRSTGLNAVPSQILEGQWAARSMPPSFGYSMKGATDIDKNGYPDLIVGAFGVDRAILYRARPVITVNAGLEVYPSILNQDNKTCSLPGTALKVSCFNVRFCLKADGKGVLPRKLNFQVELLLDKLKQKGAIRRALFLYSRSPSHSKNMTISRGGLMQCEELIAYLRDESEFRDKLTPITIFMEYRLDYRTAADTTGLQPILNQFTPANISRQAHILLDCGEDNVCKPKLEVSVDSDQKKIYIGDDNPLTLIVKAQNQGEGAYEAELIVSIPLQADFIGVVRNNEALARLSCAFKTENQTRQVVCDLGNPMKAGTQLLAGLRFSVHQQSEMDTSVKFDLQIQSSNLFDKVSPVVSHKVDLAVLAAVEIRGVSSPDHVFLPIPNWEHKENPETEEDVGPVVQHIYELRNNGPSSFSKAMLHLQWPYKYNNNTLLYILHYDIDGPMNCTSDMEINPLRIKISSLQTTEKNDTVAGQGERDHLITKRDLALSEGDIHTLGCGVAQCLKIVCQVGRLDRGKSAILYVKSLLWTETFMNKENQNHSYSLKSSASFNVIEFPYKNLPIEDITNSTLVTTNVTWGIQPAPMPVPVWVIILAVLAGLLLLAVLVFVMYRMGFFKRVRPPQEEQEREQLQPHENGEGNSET
Sequence of αvβ3 integrin on HeLa cells (P05106 27-788, chain 2 of 2): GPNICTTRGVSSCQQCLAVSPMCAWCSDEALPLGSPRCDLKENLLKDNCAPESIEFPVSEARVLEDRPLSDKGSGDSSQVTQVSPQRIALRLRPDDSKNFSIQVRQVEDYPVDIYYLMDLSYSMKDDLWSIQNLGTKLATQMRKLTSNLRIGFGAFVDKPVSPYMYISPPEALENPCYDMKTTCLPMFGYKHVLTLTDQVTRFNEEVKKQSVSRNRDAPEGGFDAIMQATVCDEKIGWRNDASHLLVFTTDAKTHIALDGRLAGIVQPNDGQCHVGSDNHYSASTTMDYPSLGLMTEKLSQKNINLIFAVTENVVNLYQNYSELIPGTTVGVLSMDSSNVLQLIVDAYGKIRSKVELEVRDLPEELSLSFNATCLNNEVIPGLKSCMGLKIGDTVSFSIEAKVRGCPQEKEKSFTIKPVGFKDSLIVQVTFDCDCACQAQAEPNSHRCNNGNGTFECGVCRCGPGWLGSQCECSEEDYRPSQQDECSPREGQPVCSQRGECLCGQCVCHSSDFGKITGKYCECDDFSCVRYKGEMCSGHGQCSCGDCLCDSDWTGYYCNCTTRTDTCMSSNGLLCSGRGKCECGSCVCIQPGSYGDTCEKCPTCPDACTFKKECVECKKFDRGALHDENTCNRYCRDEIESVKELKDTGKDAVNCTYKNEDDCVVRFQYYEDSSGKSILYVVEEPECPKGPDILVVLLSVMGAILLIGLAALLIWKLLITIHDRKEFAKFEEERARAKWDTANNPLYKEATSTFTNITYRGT

With Ac-GCGYGRGDSPSSK-NH2 [free RGD peptide (Ac-GCGYGRGDSPSSK-NH2)] the “IC50 concentration at which 50% of cell adhesion is inhibited (anti-adhesion assay, HeLa cells on vitronectin)” value was about 100 µM.

B1: Au-Cap-RGD nanoparticles (RGD nanoclusters): 5 nm gold nanoparticles modified with a mixture of Cap and Cap-RGD peptides (peptide)
peptide 1: Ac-CCVVVTGRGDSPSSK-OH
peptide 2: CCVVVT-OH
modifications: also: peptides attached to 5 nm gold nanoparticle via thiol/gold, mixture of Cap and Cap-RGD
Work on B1 yielded an IC50 level of cell adhesion inhibition, as equivalent RGD peptide (anti-adhesion assay, HeLa cells on vitronectin) of 0.1 µM.

B2: DNA/PEI-Au-Cap-RGD-ASA polyplex: DNA/poly(ethylene imine) polyplex covalently modified with Au-Cap-RGD-ASA nanoparticles (other)
peptide 1: Ac-CCVVVTGRGDSPSSK-OH
peptide 2: CCVVVT
modifications: also: peptides on gold nanoparticle via thiol/gold, azidosalicylic acid added, residue not given here, crosslinked to PEI, bound to DNA/PEI polyplex
In the case of B2, the “Integrin Sensitivity Factor (ISF), ratio of the transfection level achieved with high and low αvβ3 density cells” value is reported as 60, the “luciferase expression in low αvβ3 density HeLa cells, against unmodified polyplexes” value is reported as 5.4 fold and the “transfection efficiency in high αvβ3 density HeLa cells, against unmodified polyplexes” value is reported as 35 fold. For the same binder, the “transfection efficiency, HeLahigh against HeLalow” value was 7 fold.

— patent US20100266695A1 (University of California, published 2010)
